Among the data in article PMC10786891, “Massively parallel profiling of RNA-targeting CRISPR-Cas13d” are Kd values, retold here.

The chains are these.
T1: EsCas13d, nuclease-dead (Eubacterium siraeum, UniProt B0MS50, R295A;H300A;R849A;H854A)
T1 sequence: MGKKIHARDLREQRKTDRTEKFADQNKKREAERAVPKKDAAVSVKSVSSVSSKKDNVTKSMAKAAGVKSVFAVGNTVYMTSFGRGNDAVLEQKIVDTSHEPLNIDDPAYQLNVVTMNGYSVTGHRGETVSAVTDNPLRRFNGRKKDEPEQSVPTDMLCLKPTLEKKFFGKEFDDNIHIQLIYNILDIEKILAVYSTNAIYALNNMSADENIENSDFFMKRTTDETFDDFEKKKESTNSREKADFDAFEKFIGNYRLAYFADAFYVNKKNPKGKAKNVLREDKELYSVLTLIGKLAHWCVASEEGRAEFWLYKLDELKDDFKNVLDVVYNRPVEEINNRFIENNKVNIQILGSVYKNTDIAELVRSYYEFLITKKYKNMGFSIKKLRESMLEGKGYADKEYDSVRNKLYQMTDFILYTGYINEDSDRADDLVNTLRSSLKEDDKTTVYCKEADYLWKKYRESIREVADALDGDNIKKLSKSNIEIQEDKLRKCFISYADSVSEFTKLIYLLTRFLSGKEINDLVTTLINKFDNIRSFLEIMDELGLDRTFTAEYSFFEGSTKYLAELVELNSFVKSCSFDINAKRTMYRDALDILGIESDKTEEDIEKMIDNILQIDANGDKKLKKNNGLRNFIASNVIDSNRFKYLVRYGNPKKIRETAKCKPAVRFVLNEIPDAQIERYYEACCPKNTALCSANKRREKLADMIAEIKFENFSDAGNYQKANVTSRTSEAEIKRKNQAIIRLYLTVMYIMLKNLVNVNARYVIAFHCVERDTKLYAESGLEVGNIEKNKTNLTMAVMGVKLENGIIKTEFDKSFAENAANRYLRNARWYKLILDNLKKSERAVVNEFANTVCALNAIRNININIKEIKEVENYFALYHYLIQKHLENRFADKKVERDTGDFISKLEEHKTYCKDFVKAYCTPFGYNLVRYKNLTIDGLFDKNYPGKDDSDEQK

B1: target 1 insA 3' of 22,insU 3' of 4 (mixed)
RNA 1: CACCCGUGCAAAAAUGCAGGGGUCUAAAACUGAGCGGAUAACCUCUCUAUGG
RNA 2: GGGAAUGGAUCCACAUCUACGAAUUCGUACACAUAGAGAGGUUAUCCGCUUCACCGAGAUCGGAAGAGCACACGU
B2: target 1 MT 5'PFS GUG 3'PFS AUG (mixed)
RNA 1: CACCCGUGCAAAAAUGCAGGGGUCUAAAACUGAGCGGAUAACCUCUCUAUGG
RNA 2: GGGAAUGGAUCCACAUCUACGAAUUCGUGCCAUAGAGAGGUUAUCCGCUCAAUGAGAUCGGAAGAGCACACGU
B3: target 1 MT 5'PFS CAA 3'PFS AUC (mixed)
RNA 1: CACCCGUGCAAAAAUGCAGGGGUCUAAAACUGAGCGGAUAACCUCUCUAUGG
RNA 2: GGGAAUGGAUCCACAUCUACGAAUUCCAACCAUAGAGAGGUUAUCCGCUCAAUCAGAUCGGAAGAGCACACGU
B4: target 1 MT 5'PFS GCA 3'PFS UCC (mixed)
RNA 1: CACCCGUGCAAAAAUGCAGGGGUCUAAAACUGAGCGGAUAACCUCUCUAUGG
RNA 2: GGGAAUGGAUCCACAUCUACGAAUUCGCACCAUAGAGAGGUUAUCCGCUCAUCCAGAUCGGAAGAGCACACGU
B5: target 1 MT 5'PFS CCA 3'PFS CAG (mixed)
RNA 1: CACCCGUGCAAAAAUGCAGGGGUCUAAAACUGAGCGGAUAACCUCUCUAUGG
RNA 2: GGGAAUGGAUCCACAUCUACGAAUUCCCACCAUAGAGAGGUUAUCCGCUCACAGAGAUCGGAAGAGCACACGU
B6: target 1 MT 5'PFS AAC 3'PFS ACU (mixed)
RNA 1: CACCCGUGCAAAAAUGCAGGGGUCUAAAACUGAGCGGAUAACCUCUCUAUGG
RNA 2: GGGAAUGGAUCCACAUCUACGAAUUCAACCCAUAGAGAGGUUAUCCGCUCAACUAGAUCGGAAGAGCACACGU
B7: target 1 MT 5'PFS UGU 3'PFS CUA (mixed)
RNA 1: CACCCGUGCAAAAAUGCAGGGGUCUAAAACUGAGCGGAUAACCUCUCUAUGG
RNA 2: GGGAAUGGAUCCACAUCUACGAAUUCUGUCCAUAGAGAGGUUAUCCGCUCACUAAGAUCGGAAGAGCACACGU
B8: target 1 MT 5'PFS UGU 3'PFS CUU (mixed)
RNA 1: CACCCGUGCAAAAAUGCAGGGGUCUAAAACUGAGCGGAUAACCUCUCUAUGG
RNA 2: GGGAAUGGAUCCACAUCUACGAAUUCUGUCCAUAGAGAGGUUAUCCGCUCACUUAGAUCGGAAGAGCACACGU
B9: target 1 del8,del22 (mixed)
RNA 1: CACCCGUGCAAAAAUGCAGGGGUCUAAAACUGAGCGGAUAACCUCUCUAUGG
RNA 2: GGGAAUGGAUCCACAUCUACGAAUUCGUACAUAGAGAGGUUACCGCUCACCGAGAUCGGAAGAGCACACGU
B10: target 1 MT 5'PFS AAA 3'PFS UUG (mixed)
RNA 1: CACCCGUGCAAAAAUGCAGGGGUCUAAAACUGAGCGGAUAACCUCUCUAUGG
RNA 2: GGGAAUGGAUCCACAUCUACGAAUUCAAACCAUAGAGAGGUUAUCCGCUCAUUGAGAUCGGAAGAGCACACGU
B11: target 1 MT 5'PFS GUG 3'PFS AUU (mixed)
RNA 1: CACCCGUGCAAAAAUGCAGGGGUCUAAAACUGAGCGGAUAACCUCUCUAUGG
RNA 2: GGGAAUGGAUCCACAUCUACGAAUUCGUGCCAUAGAGAGGUUAUCCGCUCAAUUAGAUCGGAAGAGCACACGU
B12: target 1 MT 5'PFS GUU 3'PFS CAA (mixed)
RNA 1: CACCCGUGCAAAAAUGCAGGGGUCUAAAACUGAGCGGAUAACCUCUCUAUGG
RNA 2: GGGAAUGGAUCCACAUCUACGAAUUCGUUCCAUAGAGAGGUUAUCCGCUCACAAAGAUCGGAAGAGCACACGU
B13: target 1 MT 5'PFS AAA 3'PFS UUA (mixed)
RNA 1: CACCCGUGCAAAAAUGCAGGGGUCUAAAACUGAGCGGAUAACCUCUCUAUGG
RNA 2: GGGAAUGGAUCCACAUCUACGAAUUCAAACCAUAGAGAGGUUAUCCGCUCAUUAAGAUCGGAAGAGCACACGU
B14: target 1 MT 5'PFS GGG 3'PFS CGG (mixed)
RNA 1: CACCCGUGCAAAAAUGCAGGGGUCUAAAACUGAGCGGAUAACCUCUCUAUGG
RNA 2: GGGAAUGGAUCCACAUCUACGAAUUCGGGCCAUAGAGAGGUUAUCCGCUCACGGAGAUCGGAAGAGCACACGU
B15: target 1 MT 5'PFS ACC 3'PFS CAG (mixed)
RNA 1: CACCCGUGCAAAAAUGCAGGGGUCUAAAACUGAGCGGAUAACCUCUCUAUGG
RNA 2: GGGAAUGGAUCCACAUCUACGAAUUCACCCCAUAGAGAGGUUAUCCGCUCACAGAGAUCGGAAGAGCACACGU
B16: target 1 MT 5'PFS CCA 3'PFS CAC (mixed)
RNA 1: CACCCGUGCAAAAAUGCAGGGGUCUAAAACUGAGCGGAUAACCUCUCUAUGG
RNA 2: GGGAAUGGAUCCACAUCUACGAAUUCCCACCAUAGAGAGGUUAUCCGCUCACACAGAUCGGAAGAGCACACGU
B17: target 1 MT 5'PFS GAC 3'PFS AAA (mixed)
RNA 1: CACCCGUGCAAAAAUGCAGGGGUCUAAAACUGAGCGGAUAACCUCUCUAUGG
RNA 2: GGGAAUGGAUCCACAUCUACGAAUUCGACCCAUAGAGAGGUUAUCCGCUCAAAAAGAUCGGAAGAGCACACGU
B18: target 1 MT 5'PFS CCA 3'PFS CAU (mixed)
RNA 1: CACCCGUGCAAAAAUGCAGGGGUCUAAAACUGAGCGGAUAACCUCUCUAUGG
RNA 2: GGGAAUGGAUCCACAUCUACGAAUUCCCACCAUAGAGAGGUUAUCCGCUCACAUAGAUCGGAAGAGCACACGU
B19: target 1 MT 5'PFS GGG 3'PFS CGC (mixed)
RNA 1: CACCCGUGCAAAAAUGCAGGGGUCUAAAACUGAGCGGAUAACCUCUCUAUGG
RNA 2: GGGAAUGGAUCCACAUCUACGAAUUCGGGCCAUAGAGAGGUUAUCCGCUCACGCAGAUCGGAAGAGCACACGU
B20: target 1 MT 5'PFS AAC 3'PFS ACC (mixed)
RNA 1: CACCCGUGCAAAAAUGCAGGGGUCUAAAACUGAGCGGAUAACCUCUCUAUGG
RNA 2: GGGAAUGGAUCCACAUCUACGAAUUCAACCCAUAGAGAGGUUAUCCGCUCAACCAGAUCGGAAGAGCACACGU
B21: target 1 MT 5'PFS UAU 3'PFS UAA (mixed)
RNA 1: CACCCGUGCAAAAAUGCAGGGGUCUAAAACUGAGCGGAUAACCUCUCUAUGG
RNA 2: GGGAAUGGAUCCACAUCUACGAAUUCUAUCCAUAGAGAGGUUAUCCGCUCAUAAAGAUCGGAAGAGCACACGU
B22: target 1 MT 5'PFS AAC 3'PFS ACA (mixed)
RNA 1: CACCCGUGCAAAAAUGCAGGGGUCUAAAACUGAGCGGAUAACCUCUCUAUGG
RNA 2: GGGAAUGGAUCCACAUCUACGAAUUCAACCCAUAGAGAGGUUAUCCGCUCAACAAGAUCGGAAGAGCACACGU
B23: target 1 insC 3' of 19,insG 3' of 9 (mixed)
RNA 1: CACCCGUGCAAAAAUGCAGGGGUCUAAAACUGAGCGGAUAACCUCUCUAUGG
RNA 2: GGGAAUGGAUCCACAUCUACGAAUUCGUACCAUCAGAGAGGUUAGUCCGCUCACCGAGAUCGGAAGAGCACACGU
B24: target 1 MT 5'PFS GUU 3'PFS CAC (mixed)
RNA 1: CACCCGUGCAAAAAUGCAGGGGUCUAAAACUGAGCGGAUAACCUCUCUAUGG
RNA 2: GGGAAUGGAUCCACAUCUACGAAUUCGUUCCAUAGAGAGGUUAUCCGCUCACACAGAUCGGAAGAGCACACGU
B25: target 1 MT 5'PFS GAC 3'PFS UCU (mixed)
RNA 1: CACCCGUGCAAAAAUGCAGGGGUCUAAAACUGAGCGGAUAACCUCUCUAUGG
RNA 2: GGGAAUGGAUCCACAUCUACGAAUUCGACCCAUAGAGAGGUUAUCCGCUCAUCUAGAUCGGAAGAGCACACGU
B26: target 1 MT 5'PFS CUC 3'PFS ACG (mixed)
RNA 1: CACCCGUGCAAAAAUGCAGGGGUCUAAAACUGAGCGGAUAACCUCUCUAUGG
RNA 2: GGGAAUGGAUCCACAUCUACGAAUUCCUCCCAUAGAGAGGUUAUCCGCUCAACGAGAUCGGAAGAGCACACGU
B27: target 1 MT 5'PFS CAA 3'PFS AUA (mixed)
RNA 1: CACCCGUGCAAAAAUGCAGGGGUCUAAAACUGAGCGGAUAACCUCUCUAUGG
RNA 2: GGGAAUGGAUCCACAUCUACGAAUUCCAACCAUAGAGAGGUUAUCCGCUCAAUAAGAUCGGAAGAGCACACGU

The series addresses T1, EsCas13d, nuclease-dead. Description: crRNA (strand 1, pre-loaded); Mg2+; 40 mM Tris-HCl pH 7.5, 150 mM NaCl, 6 mM MgCl2, 1 mM DTT, 0.1% Tween-20, 0.2 mg/ml BSA; 25 C; 10 min per concentration, then washed. Conditions: tags: His6-TwinStrep-SUMO cleaved; N-terminal SNAP kept (SNAP-Surface 488); label: 3' end held by stalled T7 RNA polymerase.
Molecule B1 showed a Kd of 11.3 ± 0.7 nM. B2 showed a Kd of 16.2 ± 1 nM. In the case of B3, the Kd is approximately 32.5 nM. Molecule B4 showed a Kd of 13.7 ± 5.95 nM. The value for B5 was 4.25 ± 1.3 nM; that for B6 was 21 ± 7 nM; that for B7 was 49 ± 19 nM.

For B8, the Kd was determined as 28.9 ± 7.65 nM. The same measure for B9: 32.9 ± 1.7 nM. B10: the Kd turned out to be 11.7 ± 1.55 nM. Compared with the last molecule, the Kd is about 2.8-fold lower. The same measure for B11: 15.8 ± 1.4 nM; for B12: 56.5 ± 22.5 nM. With B13, binding was characterised by a dissociation constant (Kd) of 10.1 ± 1.45 nM. Consider B14, for which the Kd came out at 37.5 ± 8 nM. The same measure for B15: approximately 36 nM. The value for B16 was approximately 9.5 nM; that for B17 was approximately 51 nM. The same measure for B18: 6.55 ± 2.8 nM.

As to B19, the Kd amounted to 64 ± 30 nM. The same measure for B20: approximately 43 nM; for B21: 34 ± 11 nM.

B22 returned a Kd of 80 ± 34.5 nM. As to B23, the Kd was determined as 44 ± 5 nM. The molecule B24 showed a dissociation constant Kd of 22.5 ± 9 nM. The molecule B25 displayed a Kd of 12.8 ± 4.8 nM.

As for B26, binding was put at a Kd of 72 ± 33 nM. The value for B27 was 17.5 ± 7.5 nM.

For orientation: Kd means the equilibrium constant for the complex coming apart.
